{"source": "patent US6380373B1", "about": "“Steroid receptor coactivator compositions and methods of use” (Baylor College of Medicine, priority 1995, dated 2002)", "molecules": {"B1": {"name": "steroid receptor coactivator-one (SRC-1), full-length (protein)", "chain": "MSIPRVNPSVNPSISPAHGVARSSTLPPSNSNMVSTRINRQQSSDLHSSSHSNSSNSQGSFGCSPGSQIVANVALNKGQASSQSSKPSLNLNNPPMEGTGISLAQFMSPRRQVTSGLATRPRMPNNSFPPNISTLSSPVGMTSSACNNNNRSYSNIPVTSLQGMNEGPNNSVGFSASSPVLRQMSSQNSPSRLNIQPAKAESKDNKEIASTLNEMIQSDNSSSDGKPLDSGLLHNNDRLSDGDSKYSQTSHKLVQLLTTTAEQQLRHADIDTSCKDVLSCTGTSNSASANSSGGSCPSSHSSLTARHKILHRLLQEGSPSDITTLSVEPDKKDSASTSVSVTGQVQGNSSIKLELDASKKKESKDHQLLRYLLDKDEKDLRSTPNLSLDDVKVKVEKKEQMDPCNTNPTPMTKATPEEIKLEAQSQFTADLDQFDQLLPTLEKAAQLPGLCETDRMDGAVTSVTIKSEILPASLQSATARPTSRLNRLPELELEAIDNQFGQPGTGDQIPWTNNTVTAINQSKSEDQCISSQLDELLCPPTTVEGRNDEKALLEQLVSFLSGKDETELAELDRALGIDKLVQGGGLDVLSERFPPQQATPPLIMEERPNLYSQPYSSPFPTANLPSPFQGMVRQKPSLGTMPVQVTPPRGAFSPGMGMQPRQTLNRPPAAPNQLRLQLQQRLQGQQQLIHQNRQAILNQFAATAPVGINMRSGMQQQITPQPPLNAQMLAQRQRELYSQQHRQRQLIQQQRAMLMRQQSFGNNLPPSSGLPVQTGNPRLPQGAPQQFPYPPNYGTNPGTPPASTSPFSQLAANPEASLANRNSMVSRGMTGNIGGQFGTGINPQMQQNVFQYPGAGMVPQGEANFAPSLSPGSSMVPMPIPPPQSSLLQQTPPASGYQSPDMKAWQQGAIGNNNVFSQAVQNQPTPAQPGVYNNMSITVSMAGGNTNVQNMNPMMAQMQMSSLQMPGMNTVCPEQINDPALRHTGLYCNQLSSTDLLKTEADGTQQVQQVQVFADVQCTVNLVGGDPYLNQPGPLGTQKPTSGPQTPQAQQKSLLQQLLTE"}}, "assay_type_in_all_cases": "cell-based", "key": {"[1]": {"target": "T1, hPR (Homo sapiens, UniProt P06401)", "T1 construct": "expressed in transfected cells; host or cells: HeLa", "T1 sequence (P06401 1-933)": "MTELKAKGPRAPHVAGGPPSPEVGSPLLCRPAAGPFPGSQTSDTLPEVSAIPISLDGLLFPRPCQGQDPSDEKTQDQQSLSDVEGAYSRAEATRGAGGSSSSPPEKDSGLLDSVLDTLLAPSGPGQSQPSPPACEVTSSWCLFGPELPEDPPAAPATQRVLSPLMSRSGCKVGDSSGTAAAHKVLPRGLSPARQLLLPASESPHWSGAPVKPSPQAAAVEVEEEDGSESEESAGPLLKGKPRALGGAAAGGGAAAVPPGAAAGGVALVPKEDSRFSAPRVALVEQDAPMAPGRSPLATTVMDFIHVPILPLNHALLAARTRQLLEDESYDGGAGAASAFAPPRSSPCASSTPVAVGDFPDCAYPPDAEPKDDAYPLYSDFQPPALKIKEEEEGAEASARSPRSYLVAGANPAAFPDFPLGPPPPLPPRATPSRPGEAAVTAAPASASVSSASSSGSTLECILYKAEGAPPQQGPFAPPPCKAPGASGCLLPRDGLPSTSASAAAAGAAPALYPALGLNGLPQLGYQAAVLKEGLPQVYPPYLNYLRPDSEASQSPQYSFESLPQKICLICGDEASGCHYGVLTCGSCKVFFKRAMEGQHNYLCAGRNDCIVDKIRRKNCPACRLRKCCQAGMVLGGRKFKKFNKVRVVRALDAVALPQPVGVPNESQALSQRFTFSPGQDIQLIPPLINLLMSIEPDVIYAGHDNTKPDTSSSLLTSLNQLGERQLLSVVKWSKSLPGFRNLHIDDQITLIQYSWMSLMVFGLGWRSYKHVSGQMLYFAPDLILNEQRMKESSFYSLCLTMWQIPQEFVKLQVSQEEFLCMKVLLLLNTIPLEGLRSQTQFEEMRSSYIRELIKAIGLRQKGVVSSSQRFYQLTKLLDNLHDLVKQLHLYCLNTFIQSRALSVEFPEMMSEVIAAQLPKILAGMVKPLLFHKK", "experiment": "Squelching of hPR transactivation by hER and its reversal by SRC-1, CAT assay in HeLa cells", "description": "(§1) Lipofectin (GibcoBRL) was selected for transfection of Hela cells.\nHeLa cells were transfected with 1 μg of both hPR and hER expression vectors, together with 5 μg of PRE2-TATA-CAT and increasing amounts of SRC-1. Cells were then exposed to ligands R5020 and/or E2 (2×10^−8 M) and CAT activities determined 42 h later using 40 μg of proteins extract. The percentage of chloramphenicol conversion to the mono and diacetylated form was determined and represents the average of three independent experiments (Xn=3±SEM)."}, "[2]": {"target": "T2, E47 (Homo sapiens, UniProt P15923)", "T2 sequence (P15923 1-651 isoform P15923-2)": "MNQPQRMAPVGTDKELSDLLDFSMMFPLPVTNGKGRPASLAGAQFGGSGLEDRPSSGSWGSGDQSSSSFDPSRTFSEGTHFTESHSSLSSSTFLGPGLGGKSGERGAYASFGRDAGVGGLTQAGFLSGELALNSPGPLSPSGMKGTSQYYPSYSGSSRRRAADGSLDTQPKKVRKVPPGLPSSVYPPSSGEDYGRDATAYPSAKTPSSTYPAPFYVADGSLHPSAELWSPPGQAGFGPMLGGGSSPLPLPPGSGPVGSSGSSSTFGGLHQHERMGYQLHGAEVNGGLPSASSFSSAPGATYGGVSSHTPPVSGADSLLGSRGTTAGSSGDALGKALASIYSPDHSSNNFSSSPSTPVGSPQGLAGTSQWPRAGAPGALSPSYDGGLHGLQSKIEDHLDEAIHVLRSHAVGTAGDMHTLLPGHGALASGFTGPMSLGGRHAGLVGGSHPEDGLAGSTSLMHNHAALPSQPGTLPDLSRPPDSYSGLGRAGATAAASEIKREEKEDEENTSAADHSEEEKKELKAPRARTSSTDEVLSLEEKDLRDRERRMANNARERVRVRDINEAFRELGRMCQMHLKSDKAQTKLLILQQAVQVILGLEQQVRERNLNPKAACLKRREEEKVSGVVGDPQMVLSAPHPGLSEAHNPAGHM", "experiment": "Effect on the transcriptional activity of E47"}, "[3]": {"target": "T1, hPR", "experiment": "Transient transfection CAT reporter assay, hPRB with PRE2-TATA-CAT in HeLa cells", "description": "as §1\nTo further investigate the role of SRC-1 in receptor transactivation of target gene expression, transient transfection assays were carried out in mammalian cell lines. HeLa cells were cotransfected with mammalian expression vectors for full-length SRC-1 and hPRB together with a plasmid containing two copies of the progesterone-responsive DNA element (PRE) inserted in front of the TATA box of the E1b adenovirus, linked to the chloramphenicol acetyl transferase (CAT) reporter gene, PRE2-TATA-CAT.\nCells were harvested 42 h after transfection and the chloramphenicol acetyl transferase (CAT) activity determined using 8 μg of protein extract."}}, "data": [{"molecule": "B1", "values": [{"measurement": "reversal of hER squelching of hPR transactivation", "setting": "[1]; HeLa cells, increasing amounts of SRC-1, dose-dependent, in the presence of estrogen", "result": "~16", "unit": "fold"}, {"measurement": "stimulation of PR transactivation", "setting": "[1]; highest concentration of SRC-1 (2 μg), without estrogen squelching", "result": "~5", "unit": "fold"}, {"measurement": "effect on E47 transcriptional activity", "setting": "[2]", "result": "did not alter"}, {"measurement": "effect on reporter construct activity in the absence of PR binding site", "setting": "[3]; ERE2-TATA-CAT reporter with hPRB, with or without ligand", "result": "no effect"}, {"measurement": "effect on PR transcriptional activity", "setting": "[3]; HeLa cells, 3 μg SRC-1, R5020 2×10^−8 M, PRE2-TATA-CAT", "result": "enhance"}, {"measurement": "effect on RU486-antagonized receptor transcriptional activity", "setting": "[3]; HeLa cells, SRC-1 coexpressed, R5020 plus RU486", "result": "unable to augment and/or recover to any extent"}, {"measurement": "induction over the hormone-induced receptor activity", "setting": "[3]; HeLa cells, full-length SRC-1 cDNA (3 μg) coexpressed with hPR, 2×10^−8 M R5020, mean of seven experiments ± SEM", "result": "14.0±3.3", "unit": "fold"}, {"measurement": "activity of ligand-free hPR on the reporter", "setting": "[3]; HeLa cells, no hormone, in the absence or presence of SRC-1", "result": "minimal activity"}, {"measurement": "enhancement of hormone-induced transcriptional activity", "setting": "[3]; coexpression of SRC-1 with receptor in mammalian cells, summary statements", "result": "> 10", "unit": "fold"}]}]}
